Experimental findings from publication PMC8727025 are described below.

The assay concerns the target Arf1 Arf1-del17, lacks the first 17 amino acids (UniProt P84077). In words: GFP-GBF1 beads incubated with purified Arf1-del17-His. The conditions noted are these: reference: wild type.

Arf1 Arf1-del17, lacks the first 17 amino acids, sequence (P84077 whole entry, looked up): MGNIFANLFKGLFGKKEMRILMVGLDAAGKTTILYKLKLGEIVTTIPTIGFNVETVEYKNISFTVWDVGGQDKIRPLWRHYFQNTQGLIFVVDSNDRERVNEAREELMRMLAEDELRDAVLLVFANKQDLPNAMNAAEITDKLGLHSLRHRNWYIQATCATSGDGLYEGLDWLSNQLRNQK

GBF1 (from UniProt Q92538-1) Y876F: the other: percent reduction vs wild type (sites Y876) came out at 40%.
As to GBF1 (from UniProt Q92538-1) Y898F, the other: percent reduction vs wild type (sites Y898) amounted to 60%.
